Assay results from patent US20240173407A1.

Molecular target: Bicistronic receptor WU76UB CD3E_CD3E_2B4_CD3Z_CD3G_CD3G_OX40
Test: cell-based or functional assay

Chain of Bicistronic receptor WU76UB CD3E_CD3E_2B4_CD3Z_CD3G_CD3G_OX40 (chain, as listed by the source limits assumed, form in doubt): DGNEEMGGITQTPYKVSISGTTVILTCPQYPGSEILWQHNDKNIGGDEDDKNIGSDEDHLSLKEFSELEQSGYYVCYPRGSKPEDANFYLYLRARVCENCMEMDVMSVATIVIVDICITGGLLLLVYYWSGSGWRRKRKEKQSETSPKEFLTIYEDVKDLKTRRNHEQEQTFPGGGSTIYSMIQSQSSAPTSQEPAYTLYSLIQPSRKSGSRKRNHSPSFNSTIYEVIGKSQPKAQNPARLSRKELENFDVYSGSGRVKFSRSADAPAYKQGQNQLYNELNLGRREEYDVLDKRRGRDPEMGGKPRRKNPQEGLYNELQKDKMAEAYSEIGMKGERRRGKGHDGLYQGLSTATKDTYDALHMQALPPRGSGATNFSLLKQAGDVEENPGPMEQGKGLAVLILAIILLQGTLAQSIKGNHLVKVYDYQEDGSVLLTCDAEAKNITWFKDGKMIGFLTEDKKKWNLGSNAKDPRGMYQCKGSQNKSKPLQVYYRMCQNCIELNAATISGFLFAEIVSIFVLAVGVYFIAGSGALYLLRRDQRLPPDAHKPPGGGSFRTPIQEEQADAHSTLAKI

Work on Blinatumomab (bispecific antibody) yielded a fold change in p-S6 levels of 3 fold.
